Experimental data: patent US20150376243A1, “Use of AXMI184 for the Control of Rootworm Insects” (ATHENIX CORP., priority 2013, published 2015)

Experiments:
[1] = tested on: western corn rootworm (Diabrotica virgifera); test: Root damage in T0 transgenic maize in root-trainer containers infested with western corn rootworm eggs (CRWNIS); format: in vivo; settings: T0 maize plants containing optAxmi184 and expressing detectable AXMI184; ~125 non-diapausing eggs per plant; assessed after fifteen days; versus control plants infested in the same manner; FIG. 1
From the text: Transgenic maize plants transformed with an optimized version of Axmi184 (optAxmi184, set forth herein as SEQ ID NO:2) were obtained by Agrobacterium-mediated transformation. Plants shown by PCR analysis to contain the appropriate Axmi184 construct were selected, and transferred to root trainer containers.
T0 plants containing optAxmi184 were transplanted to root-trainer containers and propagated for approximately three weeks. Individual plants were then each infested with ˜125 non-diapausing western corn rootworm (Diabrotica virgifera) eggs. Plants were analyzed for expression of AXMI184 protein by Western blot analysis using an anti-AXMI184 antibody. Plants expressing detectable amounts of AXMI184 were selected for analysis. After fifteen days, the amount of root damage in each plant was assessed using the Node Injury Scale (CRWNIS) (Oleson et al. 2005. J. Econ Entomol. 98(1): 1-8), where 0.00 is no injury and 3.00 is all roots pruned to within 1.5 inches of the stalk on three entire nodes.

western corn rootworm = test: Field trial of T1 maize plants, corn rootworm root injury (CRWNIS); format: in vivo, Diabrotica virgifera; settings: two locations in Iowa; 750 non-diapausing western corn rootworm eggs per plant; scale 0.00 no injury to 3.00 three entire nodes pruned
Description: T1 plants expressing optAxmi184 were tested at two locations in Iowa. Each experimental unit consisted of a one-row plot of maize measuring approximately 15 feet. Plots were arranged using a randomized complete block design with four replications. Efficacy against western corn rootworm was determined by evaluating up to eight maize roots per plot. Inbreds B110 and B116, a CRW-susceptible commercial hybrid, and two CRW control standards: B110 with a standard granular insecticide (FORCE® 3G), and B110 with an insecticidal seed treatment (PONCHO® 1250) were used as controls.
Fields were prepared for this study using cultural practices similar to those used in commercial maize fields in Iowa. Plants not containing transgenic events for CRW control were identified and excluded from the study using an application of 16 oz/A of glyphosate when plants were at the V1 leaf stage. Five to ten days later, the number of positive and negative plants in each plot was recorded. Negative plants were then removed and the remaining positive plants were thinned to 8 plants per row. All plants were then manually infested with non-diapausing western corn rootworm eggs. The eggs were suspended in a dilute agar solution and calibrated to deliver 750 eggs per plant for all plots.
Roots were dug, washed and evaluated for CRW injury after a period of larval feeding. […]

B1: AXMI184: Pesticidal protein SEQ ID NO:3 from Bacillus thuringiensis strain ATX14775; expressed in maize from optimized gene optAxmi184 (SEQ ID NO:2) (protein, listed as Bacillus thuringiensis)
chain: MNMNKNNTKLSARALPSFIDYFNGIYGFATGIKDIMNMIFKTDTGGDLTLDEILKNQQLLNDISGKLDGVNGSLNDLIAQGNLNTELSKEILKIANEQNQVLNDVNNKLDAINTMLHVYLPKITSMLSDVMKPNYALSMQIEYLSRQLQEISDKLDIINVNVLINSTLTEITPAYQWIKYVNEKFEELTFATETTLKVKNDSASADILDELTELTELAKSVTKNDVDGFEFYLNTFHDVMVGNNLFGRSTLKTASELIAKENVKTSGSEVGNVYNFLVVLTALQAKAFLTLTTCRKLLGLADIDYTSIMNEHLNKEKEEFRVNILPILSNTFSNPNYAKVKGSDEDAKMIVEAKPGHALVGFEISNDSMTVLKVYEAKLKQNYQVDKDSLSEVIYGDMDKLLCPDQSEKIYYTNNIVFPNEYVITKIDFTKKMKTLRYEVTANSYDSSTGEIDLNKKKVESSKAEYRTLSANNDGVYMPLGVISETFLTPINGFGLQADENSRLITLTCKSYLRELLLATDLSNKETKLIVPPNSFISNIVENGSIEEGHLEPWKANNKNAYVDHTGGVNGTKALYVHEDGGVSQFMGDKLKPKTEYVIQYTVKGKPSIHLKDENTGYILYEDTNNDLEDFQTITKRFTTGTDLMRVYLILKSQSGHEAWGDNFTILEIKPAEALVSPELINPNSWITTQGASISGDKLFISLGTNGTFRQNLSLNSYSTYSISFTASGPFNVTVRNSREVLYERNNLMSSTSHISGEFKTESNNTGLYVELSRRSGGAGHISFENISIK
[1]
  amount of root damage, Node Injury Scale (CRWNIS): lower root damage than control plants
Western corn rootworm
  Average CRWNIS: 0.12
